Measured values taken from patent US20210017289A1 (AbbVie / Abbott, published 2021).
“And” between values parts separate entries of the source, which are not always exact repeats. Equal entries are not always repeated.

What was measured:
[1] = target: T1, human OX40 expressed on cells (human, UniProt P43489 29-277); experiment: cell-based or functional assay
T1 sequence: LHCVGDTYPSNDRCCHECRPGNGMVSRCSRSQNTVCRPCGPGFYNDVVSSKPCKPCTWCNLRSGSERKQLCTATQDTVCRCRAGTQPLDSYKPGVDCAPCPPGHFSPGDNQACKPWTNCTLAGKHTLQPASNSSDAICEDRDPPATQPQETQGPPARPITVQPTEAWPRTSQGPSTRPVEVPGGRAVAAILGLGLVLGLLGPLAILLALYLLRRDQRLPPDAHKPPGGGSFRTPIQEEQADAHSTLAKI

[2] = target: T2, human OX40-FC (R&D Systems) (human, UniProt P43489 29-216); experiment: ELISA on plates coated with human OX40-Fc
T2 construct: Purchased reagent; also called recombinant human OX40; not shown: Fc part of the purchased fusion
T2 sequence: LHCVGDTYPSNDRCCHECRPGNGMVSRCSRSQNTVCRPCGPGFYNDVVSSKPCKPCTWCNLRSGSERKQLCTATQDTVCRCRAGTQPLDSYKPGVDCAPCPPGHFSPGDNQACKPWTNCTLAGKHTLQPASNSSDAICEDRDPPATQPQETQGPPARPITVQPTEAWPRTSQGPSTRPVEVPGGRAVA
Procedure: Immunolon 4×HB 96-well plates (Thermo Scientific) were coated with 1 μg/mL of human OX40-FC (R&D Systems) at 4° C. overnight. Plates were blocked with phosphate-buffered saline (PBS) containing 1% bovine serum albumin (BSA) for 30 minutes at room temperature and then washed three times with PBST (PBS with 0.1% Tween 20) using a plate washer. OX40-coated plates were then incubated with indicated concentrations of test antibody at room temperature for one hour. Plates were washed four times with PBST and then incubated for 1 hour at room temperature with 100 μL of goat anti-human Fab fragment specific-Biotin (Jackson ImmunoResearch) prepared to a dilution of 1:5000 in PBS containing 1% BSA. Plates were then washed five times in PBST and 100 μL of a 1:1000 dilution of streptavidin-horseradish peroxidase (HRP) (Thermo Scientific) was added to each well and incubated for 30 minutes at room temperature. Plates were subsequently washed five times in PBST and 100 μL of TMB One component (Surmodics) were added to each well and incubated at room temperature (RT) until color developed (approximately 5-10 minutes). Optical density (OD) was read at 650 nm (Molecular Devices Spectromax190).

[3] = target: T3, Cyno OX40-Fc fusion (cynomolgus monkey, UniProt P43489 29-214 (human entry), limits assumed); experiment: ELISA on plates coated with Cyno OX40-Fc fusion
T3 construct: also called recombinant cynomolgus (cyno) OX40; not shown: Fc part of the fusion
T3 chain: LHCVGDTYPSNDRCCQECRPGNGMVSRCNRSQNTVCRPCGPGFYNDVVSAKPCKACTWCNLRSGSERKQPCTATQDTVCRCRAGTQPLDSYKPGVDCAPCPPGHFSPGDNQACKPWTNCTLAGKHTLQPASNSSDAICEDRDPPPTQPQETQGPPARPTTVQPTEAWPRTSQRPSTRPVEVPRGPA
Procedure: Immunolon 4×HB 96-well plates (Thermo Scientific) were coated with 1 μg/mL of Cyno OX40-Fc fusion at 4° C. overnight. Plates were blocked with PBS containing 1% bovine serum albumin (BSA) for 30 minutes at RT and then washed three times with PBST (PBS with 0.1% Tween 20). OX40-coated plates were then incubated with indicated concentrations of anti-OX40 antibody at room temperature for one hour. Plates were washed four times with PBST and then incubated for 1 hour at room temperature with 100 μL of goat anti-human FAB fragment specific-Biotin (Jackson ImmunoResearch) prepared to a dilution of 1:5000 in PBS containing 1% BSA. Plates were then washed five times in PBST and 100 μL of a 1:1000 dilution of streptavidin-HRP (Thermo Scientific) was added to each well and incubated for 30 minutes at room temperature. Plates were then washed five times in PBST and 100 μL of TMB One component (Surmodics) were added to each well and incubated at room temperature until color developed (approximately 5-10 minutes). Optical density (OD) was read at 650 nm (Molecular Devices Spectromax190).

[4] = target: T4, rhesus OX40 expressed on 293 NF-κB reporter cells (rhesus macaque (Macaca mulatta), UniProt P43489 29-277 (human entry)); experiment: flow cytometry on NF-κB reporter cells expressing rhesus OX40
T4 construct: also called cell-surface rhesus monkey OX40
T4 chain: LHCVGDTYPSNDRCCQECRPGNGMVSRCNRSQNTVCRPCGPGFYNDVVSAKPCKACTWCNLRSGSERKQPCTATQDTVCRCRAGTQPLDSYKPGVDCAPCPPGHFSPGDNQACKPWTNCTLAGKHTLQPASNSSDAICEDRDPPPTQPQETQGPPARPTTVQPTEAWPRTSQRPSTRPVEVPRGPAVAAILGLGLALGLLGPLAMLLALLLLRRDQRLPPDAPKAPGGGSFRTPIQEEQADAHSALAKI
Procedure: Rhesus macaque (Macaca mulatta) OX40 is identical to cynomolgus monkey (Macaca fascicularis) OX40 (SEQ ID NO:2) at the amino acid level. […] For the binding assay, cells were resuspended at 5 million cells per mL. 50 μL (250,000 cells)/well were transferred to each well of a 500 μL polypropylene 96-well plate (Nunc). A 2× stock of test anti-OX40 antibody or isotype control monoclonal antibody was prepared in a separate dilution plate at 666, 333, 111, 37.03, 12.34, 4.11, 0.457, 0.152, 0.0508, 0.0169, 0.00564 nM in culture media. The monoclonal antibodies (50 μL/well) were transferred into respective wells of the assay plate. Cells were incubated with the primary antibodies for 30 minutes at 4° C. and washed twice with 250 μL/well of PBS by centrifuging at 800 rpm for 3 minutes. Bound antibody was detected with Cy5-Donkey anti-human IgG (H+L) (Jackson ImmunoResearch) diluted to 2 μg/mL (50 μL/well) in PBS for 30 minutes at 4° C. Cells were washed once with 250 μL/well of PBS, resuspended in PBS containing 1% Formaldehyde and analyzed on a dual laser FACSCalibur (Becton Dickinson).

[5] = target: T1, human OX40 expressed on cells; experiment: competition by flow cytometry on Jurkat-NF-κB-huOX40 cells; competitor: ALEXA FLUOR 647-labeled Hu3738 at 2 µg/mL
Procedure: Analysis was performed by flow cytometry.

ADCC reporter activity, EC50 [1]: 0.51 nM and 77 ng/mL | IFN-γ production by human CD4+ T cells, EC50 [1]: 0.16 nM and 24 ng/mL | proliferation of human peripheral blood CD4+ T cells, EC50 [1]: 0.11 nM and 16 ng/mL | EC50 [2]: 44 pM | EC50 [3]: 39 pM | EC50 [4]: 2100 pM | IC50 (read off the curve) [5]: ~1 µg/mL
B1: Hu3738 (antibody, V domains shown)
VH: EVQLVESGGGLVQPGGSLRLSCAASGFTFSRYGMSWVRQAPGKGLELVATINSNGGRTYYPDSVKGRFTISRDNAKNSLYLQMNSLRAEDTAVYYCAREGITTAYAMDYWGQGTTVTVSS
VL: DIVMTQSPDSLAVSLGERATINCKASQSVDYDGDSYMHWYQQKPGQPPKLLIYAASILESGVPDRFSGSGSGTDFTLTISSLQAEDVAVYYCQQSNEDPRTFGGGTKVEIKR
notes: Humanized antibody; also called exemplary anti-OX40 antibody Hu3738; Hu3738 VH.1b / Hu3738 VL.1
